According to paper PMC3237570:

Molecular target: Bbox1 domain of MID1
Test: NMR titration; 1H-15N HSQC at 21°C, aqueous solution; 0.15 mM unlabeled alpha45 added to 0.3 mM 15N-labeled Bbox1 (Bbox1 to alpha45 1:0.5)

- percent of Bbox1 bound to alpha45 (at 1:0.5): 40 to 50%
- stoichiometry N: 1
Substance: alpha45 (45-amino acid region of the C-terminus of alpha4, residues Glu236 to Leu280) (from UniProt P78318 236-280) (domain or fragment)
